Laboratory results from patent US20220372138A1 (IOMX THERAPEUTICS, published 2022).
Numbering of substitutions follows the chain as printed. Read-outs that look alike come from different tables or passages of the source. Each block holds one binder with its values, some of them ahead of it.

Tests used:
[1] = target: T1, full-length ECD of human IGSF11 fused to murine Fc (human, UniProt Q5DX21 23-241); test: IgG ELISA
T1 construct: also called Fc-fusion IGSF11 ECD; not shown: murine Fc
T1 sequence: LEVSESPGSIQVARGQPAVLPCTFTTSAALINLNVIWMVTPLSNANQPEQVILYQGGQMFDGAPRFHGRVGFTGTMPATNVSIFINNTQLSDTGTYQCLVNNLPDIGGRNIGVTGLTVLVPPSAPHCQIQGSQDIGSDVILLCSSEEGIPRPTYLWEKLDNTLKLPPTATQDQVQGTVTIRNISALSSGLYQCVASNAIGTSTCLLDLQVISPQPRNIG

[2] = target: T2, IgV domain of human IGSF11 fused to murine IgG2a Fc (human, UniProt Q5DX21 23-143); test: IgG ELISA
T2 construct: not shown: murine IgG2a Fc-region
T2 sequence: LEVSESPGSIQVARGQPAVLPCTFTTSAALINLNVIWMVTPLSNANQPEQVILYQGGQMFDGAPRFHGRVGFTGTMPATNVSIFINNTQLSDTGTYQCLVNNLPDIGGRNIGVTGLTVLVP

[3] = target: T3, human IGSF11 (VSIG3) ECD, His-tagged (human, UniProt Q5DX21 23-241); test: IgG1 ELISA EC50 <0.02 nM
T3 construct: in part bought (SinoBiological 13094-H08H); also called HIS-IGSF11; IGSF11-HIS; not shown: His tag
T3 sequence: T1 sequence

[4] = target: T4, extracellular domain (ECD) of human IGSF11 (VSIG3), recombinant (human, UniProt Q5DX21 23-241); test: SPR
T4 construct: biotinylated where captured on streptavidin; tags of the reagent not always stated; also called IGSF11 (ECD domain); ECD-IGSF11
T4 sequence: T1 sequence

[5] = target: T5, IgC2 domain of human IGSF11 fused to murine IgG2a Fc (human, UniProt Q5DX21 137-241); test: IgG ELISA
T5 construct: not shown: murine IgG2a Fc-region
T5 sequence: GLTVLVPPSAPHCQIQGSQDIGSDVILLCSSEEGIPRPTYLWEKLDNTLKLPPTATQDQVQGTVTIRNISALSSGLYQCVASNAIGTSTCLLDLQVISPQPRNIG

[6] = target: T6, human IGSF11 (VSIG3) expressed on cells (human, UniProt Q5DX21 23-431); test: FACS, DMS 273 cells with scrambled control siRNA (SC)
T6 sequence: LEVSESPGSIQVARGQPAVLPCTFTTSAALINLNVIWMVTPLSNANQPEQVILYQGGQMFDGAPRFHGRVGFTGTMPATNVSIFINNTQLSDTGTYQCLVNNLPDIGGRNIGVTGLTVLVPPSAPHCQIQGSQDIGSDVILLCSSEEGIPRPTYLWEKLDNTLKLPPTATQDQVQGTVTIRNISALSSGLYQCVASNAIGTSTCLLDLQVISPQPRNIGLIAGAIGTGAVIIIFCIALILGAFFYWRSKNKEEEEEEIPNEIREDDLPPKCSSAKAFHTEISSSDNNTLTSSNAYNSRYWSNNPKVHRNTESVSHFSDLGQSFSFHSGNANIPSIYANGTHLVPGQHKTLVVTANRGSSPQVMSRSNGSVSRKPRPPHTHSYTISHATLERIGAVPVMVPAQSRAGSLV

[7] = target: T6, human IGSF11 (VSIG3) expressed on cells; test: IgG1 FACS HEK-OE
[8] = target: T6, human IGSF11 (VSIG3) expressed on cells; test: FACS, M579-A2-luc cells with IGSF11 siRNA (KD, knock-down control)
[9] = target: T3, human IGSF11 (VSIG3) ECD, His-tagged; test: IgG1 ELISA EC50 0.02-0.05 nM
[10] = target: T4, extracellular domain (ECD) of human …; test: BLI
[11] = target: T6, human IGSF11 (VSIG3) expressed on cells; test: FACS, M579-A2-luc cells with scrambled control siRNA (SC)
[12] = target: T6, human IGSF11 (VSIG3) expressed on cells; test: FACS, DMS 273 cells with IGSF11 siRNA (KD, knock-down control)
[13] = target: T7, murine IGSF11 expressed on cells (mouse, UniProt P0C673 23-428); test: IgG FACS MC38-wt
T7 construct: MC38-IGSF11, CT26-IGSF11, MC38-wt (naturally expresses murine IGSF11)
T7 sequence: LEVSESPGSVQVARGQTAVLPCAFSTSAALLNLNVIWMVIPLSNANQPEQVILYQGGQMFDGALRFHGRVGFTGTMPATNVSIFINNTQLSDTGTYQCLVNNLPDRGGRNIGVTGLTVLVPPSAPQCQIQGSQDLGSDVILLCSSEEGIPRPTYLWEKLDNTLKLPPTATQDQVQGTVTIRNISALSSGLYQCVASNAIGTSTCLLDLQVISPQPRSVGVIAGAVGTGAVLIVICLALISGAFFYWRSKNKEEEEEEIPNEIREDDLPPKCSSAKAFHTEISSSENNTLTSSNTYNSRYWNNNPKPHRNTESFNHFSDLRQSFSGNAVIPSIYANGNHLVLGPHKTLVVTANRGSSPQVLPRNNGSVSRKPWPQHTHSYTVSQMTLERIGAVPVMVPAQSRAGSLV
Description: (§1) Unbound antibodies were removed by washing the cells three time with FACS buffer. Bound antibodies were detected with a mouse anti-human IgG antibody conjugated with AlexaFluor647.

[14] = target: T6, human IGSF11 (VSIG3) expressed on cells; test: IgG FACS Colo741
Description: as §1

[15] = target: T3, human IGSF11 (VSIG3) ECD, His-tagged; test: blocking ELISA: VSIR-Fc immobilised, IgG dilution series pre-incubated with 200 nM IGSF11 ECD-His, bound IGSF11 detected with anti-His-HRP
[16] = target: T6, human IGSF11 (VSIG3) expressed on cells; test: IgG1 FACS DMS 273
[17] = target: T4, extracellular domain (ECD) of human …; test: SPR; remark: listed apart in the source
[18] = target: T3, human IGSF11 (VSIG3) ECD, His-tagged; test: ELISA: IGSF11-HIS coated, IgG1 dilution series, anti-human antibody-HRP, TMB
[19] = target: T3, human IGSF11 (VSIG3) ECD, His-tagged; test: as above; remark: listed apart in the source
[20] = target: T3, human IGSF11 (VSIG3) ECD, His-tagged; test: blocking ELISA: VSIR-Fc immobilised, IgG dilution series pre-incubated with 200 nM IGSF11 ECD-His, bound IGSF11 detected with anti-His-HRP; remark: listed apart in the source

B1: A-010 (IgG1 format) (antibody, V domains shown)
VH: QVQLVQSGAEVKKPGASVKVSCKASGYTFTSYGISWVRQAPGQGLEWMGWISAYNGNTNYAQKLQGRVTMTTDTSTSTAYMELRSLRSDDTAVYYCARVPAWSGQFDYWGQGTLVTVSS
VL: QSALTQPASVSGSPGQSITISCTGSSSDVGGYNYVSWYQQYPGKAPKLMIYDVRSRPSGVSNRFSGSKSGNTASLTISGLQAEDEADYYCTSYTSSNTLVIFGGGTKVTVL
notes: human IgG1 format
- EC50 [1]: < 1 nM
- EC50 [2]: < 1 nM
- EC50 [3]: < 0.02 nM

B2: A-026 (IgG1 format) (antibody, V domains shown)
VH: QVQLQESGPGLVKPSQTLSLTCTVSGGSISSGGYYWSWIRQHPGKGLEWIGYIYYSGSTYYNPSLKSRVTISVDTSKNQFSLKLSSVTAADTAVYYCASWSLGTSNHGWFDPWGQGTLVTVSS
VL: QSVLTQPPSASGTPGQRVTISCSGSSSNIGSNTVNWYQQLPGTAPKLLISDNNNRPSGVPDRFSGSKSGTSASLAITGLQAEDEADYYCQSYDSNLSGWVFGGGTKLTVL
notes: human IgG1 format
- Kd [4]: > 500 nM
- EC50 [1]: 1 to 20 nM
- EC50 [5]: 1 to 20 nM
- % binding (FACS heat-map) [6]: 64.4%
- EC50 [7]: > 50 nM
- % binding (FACS heat-map) [8]: 2.01%
- EC50 [9]: 0.02 to 0.05 nM
- Kd [10]: 20 to 30 nM
- % binding (FACS heat-map) [11]: 11.6%
- % binding (FACS heat-map) [12]: 3.81%

B3: A-004 (IgG1 format) (antibody, V domains shown)
VH: EVQLVESGGGLVKPGGSLRLSCAASGFTFSSYSMNWVRQAPGKGLEWVSSISSSSSYIYYADSVKGRFTISRDNAKNSLYLQMNSLRAEDTAVYYCARGQLLWFGESALIDAFDIWGQGTMVTVSS
VL: EIVLTQSPSSLSASVGDRVTITCRASQSISSYLNWYQLKPGKAPKLLIYAASILQSGVPSRFSGSGSGTDFTLTISSLQPEDFAAYYCQQSYSTPRTFGQGTKLEIK
notes: human IgG1 format
- Kd [4]: 100 to 250 nM
- EC50 [1]: 1 to 20 nM
- EC50 [2]: 1 to 20 nM
- EC50 [3]: < 0.02 nM

B5: B-002 (chain-swapped IgG1) (antibody, V domains shown)
VH: EVQLVESGGGLIQPGGSLRLSCAASGFTVSSNYMSWVRQAPGKGLEWVSVIYSGGSTYYADSVKGRFTISRDNSKNTLYLQMNSLRAEDTAVYYCARGNPYYYGDLQVNFDYWGQGTLVTVSS
VL: QAVVTQEPSLTVSPGGTVTLTCASSTGAVTSGYYPNWFQQKPGQAPRALIYSTSNKHSWTPARFSGSLLGGKAALTLSGVQPEDEAEYYCLLYYGGAWVFGGGTKLTVL
notes: human IgG1 format; also called B2
- % binding (FACS heat-map) [6]: 80.1%
- EC50 [7]: 10 to 50 nM
- % binding (FACS heat-map) [8]: 2.77%
- IC50 (read off the curve) [15]: 4 to 5 nM
- % binding (FACS heat-map) [11]: 70.7%
- EC50 [16]: > 50 nM
- Kd [17]: 100 to 250 nM
- EC50 (read off the curve) [18]: ~0.01 nM
- % binding (FACS heat-map) [12]: 8.68%

B6: A-012 (IgG1 format) (antibody, V domains shown)
VH: B5 VH with V5L, A24V
VL: B5 VL
notes: human IgG1 format
- Kd [4]: 250 to 500 nM
- EC50 (read off the curve) [19]: ~0.008 nM
- % binding (FACS heat-map) [6]: 75.8%
- IC50 (read off the curve) [20]: ~2 nM
- EC50 [7]: 10 to 50 nM
- % binding (FACS heat-map) [8]: 2.35%
- EC50 [9]: 0.02 to 0.05 nM
- Kd [10]: 1 to 10 nM
- % binding (FACS heat-map) [11]: 65.4%
- EC50 [16]: 10 to 50 nM
- % binding (FACS heat-map) [12]: 4.77%

Now from value to binder:

- EC50 [13]: < 0.1 nM
- EC50 [14]: < 0.5 nM
B4: D-116 (IgG format) (antibody, V domains shown)
VH: EVQLLESGGGLVQPGGSLRLSCAASGFTFKHSAISWVRQAPGKGLEWVSAISYGGGSQYYADSVKGRFTISRDNSKNTLYLQMNSLRAEDTAVYYCARDSRDAYGVAFDLWGQGTMVTVSS
VL: ASVLTQPPSVSAAPGQKVTISCSGSSSNIGNNYVSWYQQLPGTAPKLLIYDNNKRPSGIPDRFSGSKSGTSATLGITGLQAEDEADYYCQSYGHRSFVFGGGTKLTVL

- IC50 (read off the curve) [20]: ~2 nM
- EC50 [7]: 10 to 50 nM
- Kd [17]: 250 to 500 nM
B7: B-001 (chain-swapped IgG1) (antibody, V domains shown)
VH: B5 VH with V5L, A24V
VL: B5 VL with G32A, E87D
notes: human IgG1 format; also called B1

- EC50 (read off the curve) [19]: ~0.01 nM
- IC50 (read off the curve) [20]: ~2 nM
B8: B-005 (chain-swapped IgG1) (antibody, V domains shown)
VH: B5 VH with V5L, A24V
VL: B5 VL with L20P, A23G, Y33N, Y34L, F64I
notes: human IgG1 format; also called B5

- EC50 (read off the curve) [19]: ~0.008 nM
- IC50 (read off the curve) [20]: ~2 nM
B9: B-003 (chain-swapped IgG1) (antibody, V domains shown)
VH: B5 VH with V5L, A24V
VL: B5 VL with G16E, K41R, H57D
notes: human IgG1 format; also called B3

- EC50 [13]: < 0.5 nM
- EC50 [14]: < 0.5 nM
B10: D-223 (IgG format) (antibody, V domains shown)
VH: EVQLVESGGGLVKPGGSLRLSCAASGFTFSHAWISWVRQAPGKGLEWVGQIKGGPGSGGTSYAEPVKGRFTISRDDSKNTLYLQMNSLKTEDTAVYYCARLGIYSGFDYWGQGTLVTVSS
VL: SYELTQPPSVSVSPGQTASITCSGDKLGDKYASWYQQKPGQSPVLVIYQDSKRPSGIPERFSGSNSGNTATLTISGTQAEDEADYYCHSYLHLPPTVVFGGGTKLTVL
